Sequences and labels used below:
B1: 309_04_A04 (bispecific antibody)
chain: DIQLTQTPASLAVSLGQRATISCKASQSVDYDGDSYLNWYQQIPGQPPKLLIYDASNLVSGIPPRFSGSGSGTDFTLNIHPVEKVDAATYHCQQSTEDPWTFGGGTKLEIKGGSGGAMAQVQLQQWGAGLLKPSETLSLTCAVYGGSFSGYYWSWIRQPPGKGLEWIGEISRSGTTNYNSSLKSRVTISVDTSKNQFSLKLSSVTAADTAVYYCARATRNGVFDYWGQGTLVTVSSGGGGSGGGGSGGGASNFMLTQPHSVSESPGKTVTISCTRSSGSIASNYVQWYQQRPGSAPSTVIYEDNQRPSGVPDRFSGSIDSSSNSASLTISGLKTEDEADYYCQSYDSGVVFGGGTKLTVLGQPAAAGGGGSQVQLQQSGAELVRPGSSVKISCKASGYAFSSYWMNWVKQRPGQGLEWIGQIWPGDGDTNYNGKFKGKATLTADESSSTAYMQLSSLASEDSAVYFCARRETTTVGRYYYAMDYWGQGTSVTVSSASAAVECPPCPAPPVAGPSVFLFPPKPKDTLMISRTPEVTCVVVDVSHEDPEVQFNWYVDGVEVHNAKTKPREEQFNSTFRVVSVLTVVHQDWLNGKEYKCKVSNKGLPAPIEKTISKTKGQPREPQVYTLPPSREEMTKNQVSLTCLVKGFYPSDIAVEWESNGQPENNYKTTPPMLDSDGSFFLYSKLTVDKSRWQQGNVFSCSVMHEALHNHYTQKSLSLSPGK
B2: 400_03_H07 (bispecific antibody)
chain: DIQLTQTPASLAVSLGQRATISCKASQSVDYDGDSYLNWYQQIPGQPPKLLIYDASNLVSGIPPRFSGSGSGTDFTLNIHPVEKVDAATYHCQQSTEDPWTFGGGTKLEIKGGSGGAMAQVQLVESGGGVVQPGRSLRLSCAASGFTFSSYSMNWVRQAPGKGLEWVSSISSSSSYIYYADSVKGRFTISRDNAKNSLYLQMNSLRAEDTAVYYCARSGIAAAGFDYWGQGTLVTVSSGGGGSGGGGSGGGASNFMLTQPHSVSESPGKTVTISCARSSGSIASNYVQWYQQRPGSSPTTVIYEDNRRPSGVPDRFSGSFDSSSNSASLTISGLKTEDEADYYCQSYDSSNRVFGGGTKLTVLGQPAAAGGGGSQVQLQQSGAELVRPGSSVKISCKASGYAFSSYWMNWVKQRPGQGLEWIGQIWPGDGDTNYNGKFKGKATLTADESSSTAYMQLSSLASEDSAVYFCARRETTTVGRYYYAMDYWGQGTSVTVSSASAAVECPPCPAPPVAGPSVFLFPPKPKDTLMISRTPEVTCVVVDVSHEDPEVQFNWYVDGVEVHNAKTKPREEQFNSTFRVVSVLTVVHQDWLNGKEYKCKVSNKGLPAPIEKTISKTKGQPREPQVYTLPPSREEMTKNQVSLTCLVKGFYPSDIAVEWESNGQPENNYKTTPPMLDSDGSFFLYSKLTVDKSRWQQGNVFSCSVMHEALHNHYTQKSLSLSPGK
B3: 309_02_F01 (bispecific antibody)
chain: DIQLTQTPASLAVSLGQRATISCKASQSVDYDGDSYLNWYQQIPGQPPKLLIYDASNLVSGIPPRFSGSGSGTDFTLNIHPVEKVDAATYHCQQSTEDPWTFGGGTKLEIKGGSGGAMAEVQLVQSGAEVKKPGASVKVSCKASGYTFTGYYMHWVRQAPGQGLEWMGWINPNSGGTNYAQKFQGRVTMTRDTSISTAYMELSSLRSEDTAVYYCARDKRYSSGWYENWGQGTLVTVSSGGGGSGGGGSGGGASNFMLTQPHSVSESPGKTVTISCTRSSGSIASKYVQWYQQRPGSSPTTVIYEDNQRPSGVPDRFSGSIDISSNSASLTISGLKTEDEADYFCQSYDSSSVIFGGGTKLTVLGQPAAAGGGGSQVQLQQSGAELVRPGSSVKISCKASGYAFSSYWMNWVKQRPGQGLEWIGQIWPGDGDTNYNGKFKGKATLTADESSSTAYMQLSSLASEDSAVYFCARRETTTVGRYYYAMDYWGQGTSVTVSSASAAVECPPCPAPPVAGPSVFLFPPKPKDTLMISRTPEVTCVVVDVSHEDPEVQFNWYVDGVEVHNAKTKPREEQFNSTFRVVSVLTVVHQDWLNGKEYKCKVSNKGLPAPIEKTISKTKGQPREPQVYTLPPSREEMTKNQVSLTCLVKGFYPSDIAVEWESNGQPENNYKTTPPMLDSDGSFFLYSKLTVDKSRWQQGNVFSCSVMHEALHNHYTQKSLSLSPGK
B4: 400_01_D06 (bispecific antibody)
chain: DIQLTQTPASLAVSLGQRATISCKASQSVDYDGDSYLNWYQQIPGQPPKLLIYDASNLVSGIPPRFSGSGSGTDFTLNIHPVEKVDAATYHCQQSTEDPWTFGGGTKLEIKGGSGGAMAQVQLVQSGAEVKKPGSSVKVSCKASGGTFSSYAISWVRQAPGQGLEWMGGIIPIFGTANYAQKFQGRVTITADESTSTAYMEVRSLRSDDTAVYYCVRDRGDYGDITYFDYWGQGTLVTVSSGGGGSGGGGSGGGASNFMLTQPHSVSESPGKTVTISCTGSSGSIASNYVQWYQQRPGSAPTIVIYEDNHRPSGVPDRFSGSIDSSSNSASLTISGLKTEDEADYYCQSYDSSDRVVFGGGTKVTVLGQPAAAGGGGSQVQLQQSGAELVRPGSSVKISCKASGYAFSSYWMNWVKQRPGQGLEWIGQIWPGDGDTNYNGKFKGKATLTADESSSTAYMQLSSLASEDSAVYFCARRETTTVGRYYYAMDYWGQGTSVTVSSASAAVECPPCPAPPVAGPSVFLFPPKPKDTLMISRTPEVTCVVVDVSHEDPEVQFNWYVDGVEVHNAKTKPREEQFNSTFRVVSVLTVVHQDWLNGKEYKCKVSNKGLPAPIEKTISKTKGQPREPQVYTLPPSREEMTKNQVSLTCLVKGFYPSDIAVEWESNGQPENNYKTTPPMLDSDGSFFLYSKLTVDKSRWQQGNVFSCSVMHEALHNHYTQKSLSLSPGK

The test deals with human CD3 receptor complex (human, UniProt P07766 23-207; P09693 23-182; P04234 22-171). Briefly: cell-based or functional assay.
human CD3 receptor complex, sequence (P07766 23-207, chain 1 of 3): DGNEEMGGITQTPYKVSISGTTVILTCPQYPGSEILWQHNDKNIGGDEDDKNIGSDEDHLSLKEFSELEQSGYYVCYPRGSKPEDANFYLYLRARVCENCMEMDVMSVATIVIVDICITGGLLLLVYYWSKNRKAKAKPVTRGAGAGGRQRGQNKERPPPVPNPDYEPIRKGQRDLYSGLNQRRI
human CD3 receptor complex, sequence (P09693 23-182, chain 2 of 3): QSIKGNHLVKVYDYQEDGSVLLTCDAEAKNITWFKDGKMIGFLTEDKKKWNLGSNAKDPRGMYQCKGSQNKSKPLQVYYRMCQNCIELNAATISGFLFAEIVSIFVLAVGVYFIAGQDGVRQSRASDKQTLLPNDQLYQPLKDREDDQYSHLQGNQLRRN
human CD3 receptor complex, sequence (P04234 22-171, chain 3 of 3): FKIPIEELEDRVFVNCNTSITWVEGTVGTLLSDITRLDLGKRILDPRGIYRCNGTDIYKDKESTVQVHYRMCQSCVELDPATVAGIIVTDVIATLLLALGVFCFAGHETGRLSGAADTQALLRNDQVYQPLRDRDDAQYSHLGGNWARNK
Turning to B1, the “Activity (EC50 for activation of Jurkat line cells, pM)” value is 3.7 pM.
Take B2: the “Activity (EC50 for activation of Jurkat line cells, pM)” value was 328 pM.
The result for B3 reads 32.2 pM; that for B4, 17.5 pM.

The record behind these values is patent US20230212288A1 (published 2023).
